B1: PHTF1 (parent)
chain: RVKLISNKGTETDNDPSCVHPIIK

Variants of: B1
Assay: protein stability index of a GFP-peptide fusion (GPS, HEK-293T) (PSI 1-6); higher = more stable
Conditions: c terminus: a fixed tail appended
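Note: lentivirally expressed fusions sorted by FACS into six bins by GFP to DsRed ratio, PSI derived from sequencing read proportions per bin multiplied by bin number.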

Variant	protein stability index
RVKLISNRGTETDNDPSCVHPIIK [K8R]	3.95
RVKLISNEGTETDNDPSCVHPIIK [K8E]	4.42
RVKLISNIGTETDNDPSCVHPIIK [K8I]	3.78
RVKLISNNGTETDNDPSCVHPIIK [K8N]	3.96
RVKLISNTGTETDNDPSCVHPIIK [K8T]	4.33
RVKLISNSGTETDNDPSCVHPIIK [K8S]	4.21
RVKLISNPGTETDNDPSCVHPIIK [K8P]	3.64
RVKLISNYGTETDNDPSCVHPIIK [K8Y]	3.22
RVKLISNHGTETDNDPSCVHPIIK [K8H]	3.94
RVKLISNMGTETDNDPSCVHPIIK [K8M]	3.15
RVKLISNDGTETDNDPSCVHPIIK [K8D]	4.45
RVKLNSNKGTETDNDPSCVHPIIK [I5N]	4.41
RVKLDSNKGTETDNDPSCVHPIIK [I5D]	4.7
RVKLTSNKGTETDNDPSCVHPIIK [I5T]	4.25
RVKLFSNKGTETDNDPSCVHPIIK [I5F]	4.02
RVKLWSNKGTETDNDPSCVHPIIK [I5W]	3.6
RVKLLSNKGTETDNDPSCVHPIIK [I5L]	4.4
RVKLESNKGTETDNDPSCVHPIIK [I5E]	4.63
RVKLSSNKGTETDNDPSCVHPIIK [I5S]	4.3
RVKLKSNKGTETDNDPSCVHPIIK [I5K]	4.01
RVKLVSNKGTETDNDPSCVHPIIK [I5V]	4
RVKLCSNKGTETDNDPSCVHPIIK [I5C]	3.97
RVKLPSNKGTETDNDPSCVHPIIK [I5P]	4.8
RVKCISNKGTETDNDPSCVHPIIK [L4C]	4.48

Variant	protein stability index
RVKRISNKGTETDNDPSCVHPIIK [L4R]	4.25
RVKMISNKGTETDNDPSCVHPIIK [L4M]	4.13
RVKPISNKGTETDNDPSCVHPIIK [L4P]	4.82
RVKGISNKGTETDNDPSCVHPIIK [L4G]	4.44
RVKQISNKGTETDNDPSCVHPIIK [L4Q]	5.02
RVKSISNKGTETDNDPSCVHPIIK [L4S]	4.61
RVKKISNKGTETDNDPSCVHPIIK [L4K]	4.43
RVKLISNKGTETDNDPSRVHPIIK [C18R]	4.08
RVKLISNKGTETDNDPSSVHPIIK [C18S]	4.42
RVKLISNKGTETDNDPSLVHPIIK [C18L]	4.09
RVKLISNKGTETDNDPSPVHPIIK [C18P]	4.03
RVKLISNKGTETDNDPSVVHPIIK [C18V]	4.58
RVKLISNKGTETDNDPSEVHPIIK [C18E]	4.85
RVKLISNKGTETDNDPSYVHPIIK [C18Y]	3.77
RVKLISNKGTETDNDPSMVHPIIK [C18M]	4.19
RVKLISNKGTETDNDPSIVHPIIK [C18I]	4.23
RVKLISNKGTETDNDPSFVHPIIK [C18F]	3.79
RVKLISNKGTETDNDPSAVHPIIK [C18A]	4.01
RVKLISNKGTETDNDPSTVHPIIK [C18T]	4.42
RVKLISNKGTETDNDPSWVHPIIK [C18W]	2.77
RVKLISNKGTETWNDPSCVHPIIK [D13W]	2.48
RVKLISNKGTETYNDPSCVHPIIK [D13Y]	2.74
RVKLISNKGTETSNDPSCVHPIIK [D13S]	3.85
RVKLISNKGTETRNDPSCVHPIIK [D13R]	3.76

Variant	protein stability index
RVKLISNKGTETCNDPSCVHPIIK [D13C]	3.21
RVKLISNKGTETGNDPSCVHPIIK [D13G]	3.89
RVKLISNKGTETVNDPSCVHPIIK [D13V]	3.5
RVKLISNKGTETENDPSCVHPIIK [D13E]	4.21
RVKLISNKGTETNNDPSCVHPIIK [D13N]	3.68
RVKLISNKGTETPNDPSCVHPIIK [D13P]	3.26
RVKLISNKGTELDNDPSCVHPIIK [T12L]	3.61
RVKLISNKGTEGDNDPSCVHPIIK [T12G]	4.14
RVKLISNKGTEIDNDPSCVHPIIK [T12I]	3.86
RVKLISNKGTEQDNDPSCVHPIIK [T12Q]	4.18
RVKLISNKGTEFDNDPSCVHPIIK [T12F]	3.67
RVKLISNKGTEPDNDPSCVHPIIK [T12P]	4.29
RVKLISNKGTEDDNDPSCVHPIIK [T12D]	4.31
RVKLISNKGTEEDNDPSCVHPIIK [T12E]	4.53
RVKLISNKGTECDNDPSCVHPIIK [T12C]	3.87
RVKLISNKGTETDNDPSCMHPIIK [V19M]	3.88
RVKLISNKGTETDNDPSCYHPIIK [V19Y]	3.86
RVKLISNKGTETDNDPSCKHPIIK [V19K]	4.28
RVKLISNKGTETDNDPSCFHPIIK [V19F]	3.31
RVKLISNKGTETDNHPSCVHPIIK [D15H]	3.64
RVKLISNKGTETDNRPSCVHPIIK [D15R]	3.45
RVKLISNKGTETDNLPSCVHPIIK [D15L]	3.27
RVKLISNKGTETDNGPSCVHPIIK [D15G]	3.67
RVKLISNKGTETDNCPSCVHPIIK [D15C]	3.09

Variant	protein stability index
RVKLISNKGTETDNYPSCVHPIIK [D15Y]	3
RVKLISNKGTETDNTPSCVHPIIK [D15T]	3.56
RVKLISNKGTETDNEPSCVHPIIK [D15E]	3.94
RVKLISNKGTETDNVPSCVHPIIK [D15V]	3.68
RVKLISNKYTETDNDPSCVHPIIK [G9Y]	3.44
RVKLISNKFTETDNDPSCVHPIIK [G9F]	3.19
RVKLISNKCTETDNDPSCVHPIIK [G9C]	3.56
PVKLISNKGTETDNDPSCVHPIIK [R1P]	4.44
WVKLISNKGTETDNDPSCVHPIIK [R1W]	2.81
YVKLISNKGTETDNDPSCVHPIIK [R1Y]	2.79
DVKLISNKGTETDNDPSCVHPIIK [R1D]	4.74
IVKLISNKGTETDNDPSCVHPIIK [R1I]	3.16
HVKLISNKGTETDNDPSCVHPIIK [R1H]	4.12
AVKLISNKGTETDNDPSCVHPIIK [R1A]	4.57
QVKLISNKGTETDNDPSCVHPIIK [R1Q]	4.45
RVKLISNKGTETDYDPSCVHPIIK [N14Y]	3.73
RVKLISNKGTETDPDPSCVHPIIK [N14P]	4.3
RVKLISNKGTETDHDPSCVHPIIK [N14H]	3.82
RVKLISNKGTETDDDPSCVHPIIK [N14D]	4.04
RVKLISNKGTETDGDPSCVHPIIK [N14G]	3.83
RVKLISNKGTETDQDPSCVHPIIK [N14Q]	4.29
RVKLISPKGTETDNDPSCVHPIIK [N7P]	4.09
RVKLISGKGTETDNDPSCVHPIIK [N7G]	3.96
RVKLISLKGTETDNDPSCVHPIIK [N7L]	3.36

Variant	protein stability index
RVKLISSKGTETDNDPSCVHPIIK [N7S]	4.22
RVKLISDKGTETDNDPSCVHPIIK [N7D]	4.26
RVKLISVKGTETDNDPSCVHPIIK [N7V]	3.77
RVKLISEKGTETDNDPSCVHPIIK [N7E]	4.2
RVKLISNKGYETDNDPSCVHPIIK [T10Y]	3.94
RVKLISNKGDETDNDPSCVHPIIK [T10D]	4.1
RVKLISNKGQETDNDPSCVHPIIK [T10Q]	4.51
RVKLISNKGSETDNDPSCVHPIIK [T10S]	3.88
RVKLISNKGRETDNDPSCVHPIIK [T10R]	3.91
RVKLISNKGPETDNDPSCVHPIIK [T10P]	4.29
RVKLINNKGTETDNDPSCVHPIIK [S6N]	4.26
RVKLIQNKGTETDNDPSCVHPIIK [S6Q]	4.26
RVKLIPNKGTETDNDPSCVHPIIK [S6P]	4.17
RVKLIINKGTETDNDPSCVHPIIK [S6I]	3.23
RVKLIHNKGTETDNDPSCVHPIIK [S6H]	4.03
RVKLIFNKGTETDNDPSCVHPIIK [S6F]	2.77
RVKLIMNKGTETDNDPSCVHPIIK [S6M]	3.14
RVKLIDNKGTETDNDPSCVHPIIK [S6D]	4.49
RVFLISNKGTETDNDPSCVHPIIK [K3F]	3.29
RVHLISNKGTETDNDPSCVHPIIK [K3H]	3.83
RVPLISNKGTETDNDPSCVHPIIK [K3P]	4.55
RVNLISNKGTETDNDPSCVHPIIK [K3N]	4.32
RVELISNKGTETDNDPSCVHPIIK [K3E]	4.64
RVTLISNKGTETDNDPSCVHPIIK [K3T]	4.19

Variant	protein stability index
RVDLISNKGTETDNDPSCVHPIIK [K3D]	4.48
RVKLISNKGTETDNDPSCVHPSIK [I22S]	4.6
RVKLISNKGTETDNDPSCVHPAIK [I22A]	4.42
RVKLISNKGTETDNDPSCVHPHIK [I22H]	4.78
RVKLISNKGTETDNDPSCVHPVIK [I22V]	4.4
RVKLISNKGTETDNDPSCVHPPIK [I22P]	4.67
RVKLISNKGTETDNDPSCVHPTIK [I22T]	4.51
RVKLISNKGTETDNDPSCVHPKIK [I22K]	4.32
RVKLISNKGTETDNDPSCVHPEIK [I22E]	4.38
RVKLISNKGTETDNDPSCVHPFIK [I22F]	3.88
RVKLISNKGTETDNDPACVHPIIK [S17A]	4.42
RVKLISNKGTETDNDPQCVHPIIK [S17Q]	4.18
RVKLISNKGTETDNDPYCVHPIIK [S17Y]	3.36
RVKLISNKGTETDNDPICVHPIIK [S17I]	3.29
RVKLISNKGTETDNDPDCVHPIIK [S17D]	4.08
RVKLISNKGTETDNDPFCVHPIIK [S17F]	3.12
RHKLISNKGTETDNDPSCVHPIIK [V2H]	4.2
RSKLISNKGTETDNDPSCVHPIIK [V2S]	4.44
RGKLISNKGTETDNDPSCVHPIIK [V2G]	3.52
RKKLISNKGTETDNDPSCVHPIIK [V2K]	4.6
RYKLISNKGTETDNDPSCVHPIIK [V2Y]	3.54
RMKLISNKGTETDNDPSCVHPIIK [V2M]	3.97
RCKLISNKGTETDNDPSCVHPIIK [V2C]	4.02
RIKLISNKGTETDNDPSCVHPIIK [V2I]	4.18

Variant	protein stability index
RLKLISNKGTETDNDPSCVHPIIK [V2L]	4.19
RVKLISNKGTETDNDPSCVHMIIK [P21M]	3.06
RVKLISNKGTETDNDPSCVHIIIK [P21I]	2.1
RVKLISNKGTETDNDPSCVHGIIK [P21G]	4.08
RVKLISNKGTETDNDPSCVHNIIK [P21N]	3.61
RVKLISNKGTETDNDPSCVHCIIK [P21C]	2.75
RVKLISNKGTETDNDPSCVHDIIK [P21D]	3.95
RVKLISNKGTETDNDPSCVHTIIK [P21T]	3.87
RVKLISNKGTETDNDPSCVHQIIK [P21Q]	3.82
RVKLISNKGTETDNDPSCVHWIIK [P21W]	3.13
RVKLISNKGTETDNDPSCVLPIIK [H20L]	3.95
RVKLISNKGTETDNDPSCVDPIIK [H20D]	4.46
RVKLISNKGTETDNDPSCVAPIIK [H20A]	4.3
RVKLISNKGTETDNDPSCVNPIIK [H20N]	4.15
RVKLISNKGTETDNDPSCVCPIIK [H20C]	3.94
RVKLISNKGTETDNDPSCVFPIIK [H20F]	3.42
RVKLISNKGTYTDNDPSCVHPIIK [E11Y]	3
RVKLISNKGTMTDNDPSCVHPIIK [E11M]	3.13
RVKLISNKGTATDNDPSCVHPIIK [E11A]	4.04
RVKLISNKGTITDNDPSCVHPIIK [E11I]	3.24
RVKLISNKGTWTDNDPSCVHPIIK [E11W]	2.43
RVKLISNKGTPTDNDPSCVHPIIK [E11P]	3.95
RVKLISNKGTETDNDHSCVHPIIK [P16H]	3.88
RVKLISNKGTETDNDLSCVHPIIK [P16L]	3.38

Variant	protein stability index
RVKLISNKGTETDNDDSCVHPIIK [P16D]	4.13
RVKLISNKGTETDNDRSCVHPIIK [P16R]	3.96
RVKLISNKGTETDNDKSCVHPIIK [P16K]	4.06
RVKLISNKGTETDNDVSCVHPIIK [P16V]	3.97
RVKLISNKGTETDNDTSCVHPIIK [P16T]	3.94
RVKLISNKGTETDNDESCVHPIIK [P16E]	4.18
RVKLISNKGTETDNDYSCVHPIIK [P16Y]	3.13
RVKLISNKGTETDNDCSCVHPIIK [P16C]	3.82
RVKLISNKGTETDNDPSCVHPIMK [I23M]	4.19
RVKLISNKGTETDNDPSCVHPIHK [I23H]	4.74
RVKLISNKGTETDNDPSCVHPISK [I23S]	4.37
RVKLISNKGTETDNDPSCVHPIQK [I23Q]	4.64
RVKLISNKGTETDNDPSCVHPITK [I23T]	4.57
RVKLISNKGTETDNDPSCVHPIIG [K24G]	3.76
RVKLISNKGTETDNDPSCVHPIIE [K24E]	4.13
RVKLISNKGTETDNDPSCVHPIID [K24D]	4.22
RVKLISNKGTETDNDPSCVHPIIF [K24F]	2.33
RVKLISNKGTETDNDPSCVHPIIH [K24H]	4.11
RVKLISNKGTETDNDPSCVHPIIM [K24M]	3
RVKLISNKGTETDNDPSCVHPIIP [K24P]	4.27

— the supplement of paper PMC10567573
